Usually stoichiometry N stands for a count of units in the complex or per binding partner.

The target in experiment [1] is Caldendrin full length (UniProt O88751). Kind of experiment: cross-linking + SEC; protein incubated with 0.01% glutaraldehyde, then Superdex 75 gel filtration.
The target is the same in experiment [2]. Kind of experiment: SEC; Superdex 75, ÄKTA FPLC, 50 mM Tris, 100 mM KCl, 500 µM Mg2+ with 200 µM EGTA or 100 µM Ca2+; monomer to dimer. In general terms: Size exclusion chromatography separates by hydrodynamic size, large species first.
For experiment [3] the target is unchanged. Kind of experiment: dynamic light scattering; Zetasizer Nano S, 25°C, 50 mM Tris, 100 mM KCl, Mg2+ with EGTA or with 50 µM Ca2+; monomer to dimer.
The target is the same in experiment [4]. Kind of experiment: SPR; Biacore X-100, CM5 chip, ligand amine-coupled, 25°C, flow 10 µl/min; running buffer with 1 mM Mg2+/1 mM EGTA (column 'EGTA'); molar binding activity deduced from the dissociation phase. (In general: Surface plasmon resonance follows binding to a sensor surface in real time, without labels.)
For experiment [5] the target is unchanged. Kind of experiment: SPR; Biacore X-100, CM5 chip, ligand amine-coupled, 25°C, flow 10 µl/min; running buffer with 1 mM Mg2+/500 µM Ca2+ (column 'Ca2+'); molar binding activity deduced from the dissociation phase.
Experiment [6] addresses Caldendrin-C-terminus (Caldendrin-Ct, residues 137–298) (UniProt O88751). Briefly: SPR; Biacore X-100, CM5 chip, ligand amine-coupled, 25°C, flow 10 µl/min; running buffer with 1 mM Mg2+/1 mM EGTA (column 'EGTA'); molar binding activity deduced from the dissociation phase.
Experiment [7] has the same target. Kind of experiment: SPR; Biacore X-100, CM5 chip, ligand amine-coupled, 25°C, flow 10 µl/min; running buffer with 1 mM Mg2+/500 µM Ca2+ (column 'Ca2+'); molar binding activity deduced from the dissociation phase.

Sequence of Caldendrin-C-terminus (Caldendrin-Ct, residues 137–298), O88751 137-298 (domain or fragment; other documents disagree on this pair) (O88751 137-298): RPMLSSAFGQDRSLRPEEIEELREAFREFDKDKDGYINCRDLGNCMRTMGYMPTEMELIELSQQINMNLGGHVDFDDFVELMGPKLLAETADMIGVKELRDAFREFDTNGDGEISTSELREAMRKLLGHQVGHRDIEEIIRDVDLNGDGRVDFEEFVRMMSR

As for “Caldendrin full length (from UniProt O88751 1-298) (natural protein)”, the stoichiometry N in experiment [1], in experiment [2] and in experiment [3] was 2 each time. In addition, the results for the molar binding activity in experiment [4] and in experiment [5] were 0.0215 and 0.0757, respectively.
Regarding “Caldendrin-C-terminus (Caldendrin-Ct, residues 137–298), O88751 137-298 (domain or fragment; other documents disagree on this pair)”, the figures for the molar binding activity in experiment [6] and in experiment [7] were 0.0541 and 0.0373, respectively.

Source of the values: paper PMC4110014.
